This assay deals with HLA-A*01:01/hβ2m complex (empty, peptide-free or peptide-receptive) (human). Put plainly: FP.

The values that follow come from article PMC10713829 (2023).

What is called IC50 is the concentration at which inhibition is half-maximal.

In turn, ILDTAGQEEY [NRAS_(55-64) wild-type (Q61) peptide] came in with an IC50 of 278 nM.
